Data reported in US20210388096A1 (Astellas, published 2021).

T1: human Fn14-human Fc fusion protein (human, UniProt Q9NP84 28-79)
T1 construct: range 1-79; Purified from CHO-K1SV culture supernatant; coated on the ELISA plate
T1 sequence: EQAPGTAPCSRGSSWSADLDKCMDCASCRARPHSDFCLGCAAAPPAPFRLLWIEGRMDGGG

T2: human Fn14 on cells (NFkB/HEK293 reporter cells, A375 cells) (human, UniProt Q9NP84 28-129)
T2 sequence (looked up): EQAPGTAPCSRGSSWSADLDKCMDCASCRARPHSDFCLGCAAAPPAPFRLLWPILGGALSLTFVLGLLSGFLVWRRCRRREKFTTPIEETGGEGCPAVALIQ


Experiments:
[1] = molecular target: T3, mouse Fn14-mouse Fc fusion protein (mouse, UniProt Q9CR75 28-75); assay: ELISA, Fn14-Fc fusion coated on plate, HRP anti-mouse kappa detection
T3 construct: range 1-75; Fn14 part cloned via EcoRI/EcoRV into the multicloning site of pFUSE-mIgG2B-Fc1; not shown: mouse Fc region: mIgG2B-Fc region of vector pFUSE-mIgG2B-Fc1 (InvivoGen)
Procedure: (§1) Binding activities of 4-1h and 4-1m acquired in Example 4 to a Fn14 protein were evaluated. The human Fn14-human Fc fusion protein and the mouse Fn14-mouse Fc fusion protein acquired in Example 1 were diluted in phosphate buffered saline (PBS) at 1 μg/mL and added to a MaxiSorp 384-well transparent plate (Nunc, 464718) at 15 μL/well. Incubation was performed overnight at 4° C. for Immobilization. On the next day, the solid phase liquid was removed, and washing was performed with a 0.05% Tween-20-containing Tris-buffered saline (TBS-T). PBS containing 20% Blocking One (Nacalai tesque, Inc., 03953-95) was added thereto at […]. The resultant was left at room temperature for 1 hour, and then washed with TBS-T. A dilution series of 4-1h or 4-1m acquired in Example 4 was prepared by dilution in 12 steps with a 4-fold common ratio from a maximum concentration of 30 μg/mL using TBS-T containing 5% Blocking One (hereinafter, referred to as a diluent), and added at 20 μL/well. […] Then, the reaction was stopped by adding a 2M sulfuric acid, and the absorbance at 450 nm was measured with SpectraMax Paradigm (Molecular Devices, LLC). The test was performed in duplicate, and EC₅₀ values were calculated by 4-parameter logistic curve fitting.

[2] = molecular target: T1, human Fn14-human Fc fusion protein; assay: as above
Procedure: as §1

[3] = molecular target: T2, human Fn14 on cells (NFkB/HEK293 …); assay: cell-based or functional assay
[4] = molecular target: T3, mouse Fn14-mouse Fc fusion protein; assay: ELISA, Fn14-Fc fusion coated on plate, HRP anti-human kappa detection
Procedure: as §1

[5] = molecular target: T1, human Fn14-human Fc fusion protein; assay: as above
Procedure: as §1

T3 sequence (Q9CR75 28-75 limits assumed): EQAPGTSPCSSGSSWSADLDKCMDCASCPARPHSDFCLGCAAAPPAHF

EC50 [1]	EC50 [2]	IC50 (ng/mL), inhibition of Tweak-induced NFkB activation (luciferase reporter, NFkB/HEK293 cells), geometric mean of three trials [3]	EC50 [4]	EC50 [5]	Binder
0.0165 µg/mL	0.0182 µg/mL	–	–	–	murinized anti-human Fn14 antibody 4-1m (antibody, mouse IgG2a, kappa, V domains shown, Framework regions of 4-1h partially substituted with mouse FR; mouse kappa light chain; also called murinized antibody of 4-1h) VH: DVQLQESGPGLVKPSQSLSLTCAVYGGSFSGYYWSWIRQFPGNKLEWMGEINHRGSTNSNPSLKSRISITVDTSKNQFFLQLNSVTTEDTATYYCAREGISGSMGIYDYSGMDVWGQGTLVTVSA VL: DIVMSQSPSSLAVSVGEKVTMSCKSRQSILYSSNNKNYLTWYQQKPGQSPKLLIYWASTRESGVPDRFTGSGSGTDFTLTISSVKAEDLAVYYCQQYYSTPYTFGSGTKLEIKR
–	–	41.5 ng/mL	0.0232 µg/mL	0.0304 µg/mL	fully humanized anti-human Fn14 antibody 4-1h (antibody, human IgG1, kappa, L234A L235A, V domains shown, most of the purified antibodies had pyroglutamylation at the N terminal of the heavy chain and deletion of lysine at the C terminal (Example 5), human kappa light chain; Expressed in CHO-K1SV cells; also called fully humanized antibody of 4-1) VH: QVQLQQWGAGLLKPSETLSLTCAVYGGSFSGYYWSWIRQPPGKGLEWIGEINHRGSTNSNPSLKSRDTISVDTSKNQFSLRLRSVTAADTAVYYCAREGISGSMGIYDYSGMDVWGQGTTVTVSS VL: not shown
